{
  "source": "patent US20180092966A1",
  "about": "(CSL, published 2018)",
  "key": {"[1]": {"target": "T1, VWF-FP K1116C mutant (albumin-fused von Willebrand Factor) (human)", "T1 construct": "Stably expressed in CHO cells with furin co-transfected; also called VWF-FP mutant K1116C; Cys residue at VWF aa position 1116; not shown: linker between VWF and albumin, made in analogy to WO 2009/156137", "T1 sequence (chain, as listed by the source K1116C K1116C)": "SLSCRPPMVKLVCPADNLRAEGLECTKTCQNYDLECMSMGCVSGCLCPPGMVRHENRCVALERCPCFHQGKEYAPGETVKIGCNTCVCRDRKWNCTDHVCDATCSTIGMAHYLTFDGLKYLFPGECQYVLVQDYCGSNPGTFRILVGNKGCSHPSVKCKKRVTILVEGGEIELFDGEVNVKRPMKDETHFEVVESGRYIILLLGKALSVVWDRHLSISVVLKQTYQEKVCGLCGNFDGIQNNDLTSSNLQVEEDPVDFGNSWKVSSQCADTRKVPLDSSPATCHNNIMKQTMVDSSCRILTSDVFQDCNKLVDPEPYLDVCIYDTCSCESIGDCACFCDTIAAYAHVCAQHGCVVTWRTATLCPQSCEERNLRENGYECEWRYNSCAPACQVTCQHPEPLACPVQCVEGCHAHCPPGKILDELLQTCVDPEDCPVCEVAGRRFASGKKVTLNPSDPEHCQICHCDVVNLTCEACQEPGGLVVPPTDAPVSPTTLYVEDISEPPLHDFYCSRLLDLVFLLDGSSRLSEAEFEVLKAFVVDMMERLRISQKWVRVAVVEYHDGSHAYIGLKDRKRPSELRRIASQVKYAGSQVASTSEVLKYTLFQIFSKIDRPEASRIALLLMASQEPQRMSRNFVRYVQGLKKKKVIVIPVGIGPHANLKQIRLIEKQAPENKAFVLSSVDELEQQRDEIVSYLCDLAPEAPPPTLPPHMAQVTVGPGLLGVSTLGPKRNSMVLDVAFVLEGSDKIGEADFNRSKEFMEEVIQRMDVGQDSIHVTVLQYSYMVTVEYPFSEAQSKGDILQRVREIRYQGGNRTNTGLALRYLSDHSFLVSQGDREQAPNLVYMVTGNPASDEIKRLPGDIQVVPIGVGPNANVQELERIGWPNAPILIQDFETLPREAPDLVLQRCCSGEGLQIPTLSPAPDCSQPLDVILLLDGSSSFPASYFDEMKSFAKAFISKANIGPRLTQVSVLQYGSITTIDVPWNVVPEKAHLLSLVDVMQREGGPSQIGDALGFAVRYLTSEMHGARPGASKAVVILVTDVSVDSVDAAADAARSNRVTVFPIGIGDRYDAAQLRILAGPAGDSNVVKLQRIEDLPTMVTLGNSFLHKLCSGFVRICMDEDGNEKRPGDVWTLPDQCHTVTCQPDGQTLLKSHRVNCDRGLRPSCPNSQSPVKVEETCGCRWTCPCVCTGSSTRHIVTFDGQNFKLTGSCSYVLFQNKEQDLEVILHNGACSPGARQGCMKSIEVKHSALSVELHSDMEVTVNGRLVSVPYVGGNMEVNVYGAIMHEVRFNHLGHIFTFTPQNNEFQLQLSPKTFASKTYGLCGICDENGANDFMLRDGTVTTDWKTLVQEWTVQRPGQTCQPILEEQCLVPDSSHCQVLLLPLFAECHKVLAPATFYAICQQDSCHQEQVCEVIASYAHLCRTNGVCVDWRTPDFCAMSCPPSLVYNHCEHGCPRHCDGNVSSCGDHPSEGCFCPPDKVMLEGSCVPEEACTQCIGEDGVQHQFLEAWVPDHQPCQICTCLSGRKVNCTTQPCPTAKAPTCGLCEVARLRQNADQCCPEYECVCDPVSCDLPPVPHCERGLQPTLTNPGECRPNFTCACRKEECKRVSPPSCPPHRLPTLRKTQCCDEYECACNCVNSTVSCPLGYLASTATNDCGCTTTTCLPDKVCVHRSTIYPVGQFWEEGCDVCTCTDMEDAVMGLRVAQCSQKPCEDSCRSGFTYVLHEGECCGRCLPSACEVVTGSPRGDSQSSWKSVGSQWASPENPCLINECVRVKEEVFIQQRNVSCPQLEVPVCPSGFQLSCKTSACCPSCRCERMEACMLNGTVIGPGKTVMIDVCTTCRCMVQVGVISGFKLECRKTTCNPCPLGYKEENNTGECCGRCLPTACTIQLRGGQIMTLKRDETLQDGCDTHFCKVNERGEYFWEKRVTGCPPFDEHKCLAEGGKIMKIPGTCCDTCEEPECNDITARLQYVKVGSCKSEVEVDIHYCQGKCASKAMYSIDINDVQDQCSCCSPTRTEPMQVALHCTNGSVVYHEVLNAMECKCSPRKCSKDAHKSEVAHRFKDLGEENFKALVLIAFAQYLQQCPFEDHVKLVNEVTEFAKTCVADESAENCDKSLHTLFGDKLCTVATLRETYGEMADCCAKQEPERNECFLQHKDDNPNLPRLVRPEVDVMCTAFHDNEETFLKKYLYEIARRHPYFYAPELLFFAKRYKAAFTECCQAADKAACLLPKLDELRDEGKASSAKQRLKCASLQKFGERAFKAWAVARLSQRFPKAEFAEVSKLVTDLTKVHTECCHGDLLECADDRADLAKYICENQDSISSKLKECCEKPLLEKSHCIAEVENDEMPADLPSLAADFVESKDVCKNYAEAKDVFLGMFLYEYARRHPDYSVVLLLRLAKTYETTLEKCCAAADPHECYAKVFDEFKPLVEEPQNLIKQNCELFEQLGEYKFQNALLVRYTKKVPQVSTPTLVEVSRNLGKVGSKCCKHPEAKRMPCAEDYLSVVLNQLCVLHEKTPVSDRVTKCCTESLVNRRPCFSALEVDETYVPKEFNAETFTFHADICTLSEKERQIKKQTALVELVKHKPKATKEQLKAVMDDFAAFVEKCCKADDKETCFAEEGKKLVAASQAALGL", "experiment": "ELISA of co-expression supernatant: anti-VWF capture, 350 mM CaCl2 wash, anti-FVIII detection"}, "[2]": {"target": "T2, VWF-FP E1015C mutant (albumin-fused von Willebrand Factor) (human)", "T2 construct": "Stably expressed in CHO cells with furin co-transfected; also called VWF-FP mutant E1015C; Cys residue at VWF aa position 1015; not shown: linker between VWF and albumin, made in analogy to WO 2009/156137", "T2 sequence (chain, as listed by the source E1015C E1015C)": "as the sequence (chain, as listed by the source K1116C K1116C) above, with E252C, C353K counted along it", "experiment": "ELISA of co-expression supernatant: anti-VWF capture, 350 mM CaCl2 wash, anti-FVIII detection"}, "[3]": {"target": "T3, VWF-FP R768C mutant (albumin-fused von Willebrand Factor) (human)", "T3 construct": "Stably expressed in CHO cells with furin co-transfected; also called VWF-FP mutant R768C; Cys residue at VWF aa position 768; not shown: linker between VWF and albumin, made in analogy to WO 2009/156137", "T3 sequence (chain, as listed by the source R768C R768C)": "as the sequence (chain, as listed by the source K1116C K1116C) above, with R5C, C353K counted along it", "experiment": "ELISA of co-expression supernatant: anti-VWF capture, 350 mM CaCl2 wash, anti-FVIII detection"}, "[4]": {"target": "T4, VWF-FP N1134C mutant (albumin-fused von Willebrand Factor) (human)", "T4 construct": "Stably expressed in CHO cells with furin co-transfected; also called VWF-FP mutant N1134C; Cys residue at VWF aa position 1134; not shown: linker between VWF and albumin, made in analogy to WO 2009/156137", "T4 sequence (chain, as listed by the source N1134C N1134C)": "as the sequence (chain, as listed by the source K1116C K1116C) above, with C353K, N371C counted along it", "experiment": "ELISA of co-expression supernatant: anti-VWF capture, 350 mM CaCl2 wash, anti-FVIII detection"}, "[5]": {"target": "T5, VWF-FP H817C mutant (albumin-fused von Willebrand Factor) (human)", "T5 construct": "Stably expressed in CHO cells with furin co-transfected; also called VWF-FP mutant H817C; Cys residue at VWF aa position 817; not shown: linker between VWF and albumin, made in analogy to WO 2009/156137", "T5 sequence (chain, as listed by the source H817C H817C)": "as the sequence (chain, as listed by the source K1116C K1116C) above, with H54C, C353K counted along it", "experiment": "ELISA of co-expression supernatant: anti-VWF capture, 350 mM CaCl2 wash, anti-FVIII detection"}, "[6]": {"target": "T6, VWF-FP L984C mutant (albumin-fused von Willebrand Factor) (human)", "T6 construct": "Stably expressed in CHO cells with furin co-transfected; also called VWF-FP mutant L984C; Cys residue at VWF aa position 984; not shown: linker between VWF and albumin, made in analogy to WO 2009/156137", "T6 sequence (chain, as listed by the source L984C L984C)": "as the sequence (chain, as listed by the source K1116C K1116C) above, with L221C, C353K counted along it", "experiment": "ELISA of co-expression supernatant: anti-VWF capture, 350 mM CaCl2 wash, anti-FVIII detection"}, "[7]": {"target": "T1, VWF-FP K1116C mutant (albumin-fused von …)", "experiment": "covalent-FVIII ELISA over FVIII activity assay"}, "[8]": {"target": "T2, VWF-FP E1015C mutant (albumin-fused von …)", "experiment": "covalent-FVIII ELISA over FVIII activity assay"}, "[9]": {"target": "T3, VWF-FP R768C mutant (albumin-fused von …)", "experiment": "covalent-FVIII ELISA over FVIII activity assay"}, "[10]": {"target": "T4, VWF-FP N1134C mutant (albumin-fused von …)", "experiment": "covalent-FVIII ELISA over FVIII activity assay"}, "[11]": {"target": "T5, VWF-FP H817C mutant (albumin-fused von …)", "experiment": "covalent-FVIII ELISA over FVIII activity assay"}, "[12]": {"target": "T6, VWF-FP L984C mutant (albumin-fused von …)", "experiment": "covalent-FVIII ELISA over FVIII activity assay"}, "[13]": {"target": "T1, VWF-FP K1116C mutant (albumin-fused von …)", "experiment": "covalent-FVIII ELISA over FVIII antigen ELISA"}, "[14]": {"target": "T2, VWF-FP E1015C mutant (albumin-fused von …)", "experiment": "covalent-FVIII ELISA over FVIII antigen ELISA"}, "[15]": {"target": "T3, VWF-FP R768C mutant (albumin-fused von …)", "experiment": "covalent-FVIII ELISA over FVIII antigen ELISA"}, "[16]": {"target": "T4, VWF-FP N1134C mutant (albumin-fused von …)", "experiment": "covalent-FVIII ELISA over FVIII antigen ELISA"}, "[17]": {"target": "T5, VWF-FP H817C mutant (albumin-fused von …)", "experiment": "covalent-FVIII ELISA over FVIII antigen ELISA"}, "[18]": {"target": "T6, VWF-FP L984C mutant (albumin-fused von …)", "experiment": "covalent-FVIII ELISA over FVIII antigen ELISA"}},
  "data": [
    {"binder": "Factor VIII SingleChain P1688C mutant (other, Single-chain FVIII with partial B-domain deletion; also called FVIII-SC P1688C; Cys residue at FVIII aa position 1688) ATRRYYLGAVELSWDYMQSDLGELPVDARFPPRVPKSFPFNTSVVYKKTLFVEFTDHLFNIAKPRPPWMGLLGPTIQAEVYDTVVITLKNMASHPVSLHAVGVSYWKASEGAEYDDQTSQREKEDDKVFPGGSHTYVWQVLKENGPMASDPLCLTYSYLSHVDLVKDLNSGLIGALLVCREGSLAKEKTQTLHKFILLFAVFDEGKSWHSETKNSLMQDRDAASARAWPKMHTVNGYVNRSLPGLIGCHRKSVYWHVIGMGTTPEVHSIFLEGHTFLVRNHRQASLEISPITFLTAQTLLMDLGQFLLFCHISSHQHDGMEAYVKVDSCPEEPQLRMKNNEEAEDYDDDLTDSEMDVVRFDDDNSPSFIQIRSVAKKHPKTWVHYIAAEEEDWDYAPLVLAPDDRSYKSQYLNNGPQRIGRKYKKVRFMAYTDETFKTREAIQHESGILGPLLYGEVGDTLLIIFKNQASRPYNIYPHGITDVRPLYSRRLPKGVKHLKDFPILPGEIFKYKWTVTVEDGPTKSDPRCLTRYYSSFVNMERDLASGLIGPLLICYKESVDQRGNQIMSDKRNVILFSVFDENRSWYLTENIQRFLPNPAGVQLEDPEFQASNIMHSINGYVFDSLQLSVCLHEVAYWYILSIGAQTDFLSVFFSGYTFKHKMVYEDTLTLFPFSGETVFMSMENPGLWILGCHNSDFRNRGMTALLKVSSCDKNTGDYYEDSYEDISAYLLSKNNAIEPRSFSQNSRHRSTRQKQFNATTIPENTTLQSDQEEIDYDDTISVEMKKEDFDIYDEDENQSCRSFQKKTRHYFIAAVERLWDYGMSSSPHVLRNRAQSGSVPQFKKVVFQEFTDGSFTQPLYRGELNEHLGLLGPYIRAEVEDNIMVTFRNQASRPYSFYSSLISYEEDQRQGAEPRKNFVKPNETKTYFWKVQHHMAPTKDEFDCKAWAYFSDVDLEKDVHSGLIGPLLVCHTNTLNPAHGRQVTVQEFALFFTIFDETKSWYFTENMERNCRAPCNIQMEDPTFKENYRFHAINGYIMDTLPGLVMAQDQRIRWYLLSMGSNENIHSIHFSGHVFTVRKKEEYKMALYNLYPGVFETVEMLPSKAGIWRVECLIGEHLHAGMSTLFLVYSNKCQTPLGMASGHIRDFQITASGQYGQWAPKLARLHYSGSINAWSTKEPFSWIKVDLLAPMIIHGIKTQGARQKFSSLYISQFIIMYSLDGKKWQTYRGNSTGTLMVFFGNVDSSGIKHNIFNPPIIARYIRLHPTHYSIRSTLRMELMGCDLNSCSMPLGMESKAISDAQITASSYFTNMFATWSPSKARLHLQGRSNAWRPQVNNPKEWLQVDFQKTMKVTGVTTQGVKSLLTSMYVKEFLISSSQDGHQWTLFFQNGKVKVFQGNQDSFTPVVNSLDPPLLTRYLRIHPQSWVHQIALRMEVLGCEAQDLY", "values": [
      {"measurement": "covalent FVIII", "setting": "[1]", "value": 666, "unit": "amU/ml"},
      {"measurement": "covalent FVIII", "setting": "[2]", "value": 1080, "unit": "amU/ml"},
      {"measurement": "covalent FVIII", "setting": "[3]", "value": 2060, "unit": "amU/ml"},
      {"measurement": "covalent FVIII", "setting": "[4]", "value": 650, "unit": "amU/ml"},
      {"measurement": "covalent FVIII", "setting": "[5]", "value": 367, "unit": "amU/ml"},
      {"measurement": "covalent FVIII", "setting": "[6]", "value": 1900, "unit": "amU/ml"},
      {"measurement": "ratio covalent FVIII/Total FVIII activity", "setting": "[7]", "value": 0.61},
      {"measurement": "ratio covalent FVIII/Total FVIII activity", "setting": "[8]", "value": 1.59},
      {"measurement": "ratio covalent FVIII/Total FVIII activity", "setting": "[9]", "value": 18.8},
      {"measurement": "ratio covalent FVIII/Total FVIII activity", "setting": "[10]", "value": 1.87},
      {"measurement": "ratio covalent FVIII/Total FVIII activity", "setting": "[11]", "value": 1.89},
      {"measurement": "ratio covalent FVIII/Total FVIII activity", "setting": "[12]", "value": 2.45},
      {"measurement": "ratio covalent FVIII/Total FVIII antigen", "setting": "[13]", "value": 1.89},
      {"measurement": "ratio covalent FVIII/Total FVIII antigen", "setting": "[14]", "value": 0.53},
      {"measurement": "ratio covalent FVIII/Total FVIII antigen", "setting": "[15]", "value": 2.13},
      {"measurement": "ratio covalent FVIII/Total FVIII antigen", "setting": "[16]", "value": 6.11},
      {"measurement": "ratio covalent FVIII/Total FVIII antigen", "setting": "[17]", "value": 0.29},
      {"measurement": "ratio covalent FVIII/Total FVIII antigen", "setting": "[18]", "value": 0.96}
    ]}
  ]
}
